In article PMC5486051, “BrWRKY65, a WRKY Transcription Factor, Is Involved in Regulating Three Leaf Senescence-Associated Genes in Chinese Flowering Cabbage”:

Experiments:
GST-BrWRKY65 [1] = target: T1, GST-BrWRKY65 (Brassica rapa var. parachinensis …, UniProt A0ACM8RC22 1-261); assay: EMSA; shift abolished dose-dependently by unlabeled self competitor (100x, 1000x); LightShift Chemiluminescent EMSA Kit; native polyacrylamide gel (Figure 5 legend; Methods says SDS-PAGE); buffer, salt, pH and temperature not stated; settings: protein: recombinant; tags: GST (N-terminal, pGEX-4T-1); label: 5' biotin
T1 sequence (A0ACM8RC22 entry or part of it): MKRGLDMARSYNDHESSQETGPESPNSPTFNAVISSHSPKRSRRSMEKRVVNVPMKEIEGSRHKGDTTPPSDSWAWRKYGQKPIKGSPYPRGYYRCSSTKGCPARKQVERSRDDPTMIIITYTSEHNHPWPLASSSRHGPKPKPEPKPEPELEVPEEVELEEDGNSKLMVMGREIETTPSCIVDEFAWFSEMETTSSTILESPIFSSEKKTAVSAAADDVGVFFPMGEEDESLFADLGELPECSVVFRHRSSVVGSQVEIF

GST-BrWRKY65 [2] = target: T1, GST-BrWRKY65; assay: competition; unlabeled mutant, 100-1000x excess over N1; LightShift Chemiluminescent EMSA Kit; native polyacrylamide gel (Figure 5 legend; Methods says SDS-PAGE); buffer, salt, pH and temperature not stated; settings: protein: recombinant; tags: GST (N-terminal, pGEX-4T-1); label: unlabeled
GST-BrWRKY65 [3] = target: T1, GST-BrWRKY65; assay: competition; unlabeled mutant, 100-1000x excess over N2; LightShift Chemiluminescent EMSA Kit; native polyacrylamide gel (Figure 5 legend; Methods says SDS-PAGE); buffer, salt, pH and temperature not stated; settings: protein: recombinant; tags: GST (N-terminal, pGEX-4T-1); label: unlabeled
GST-BrWRKY65 [4] = target: T1, GST-BrWRKY65; assay: competition; unlabeled mutant, 100-1000x excess over N3; LightShift Chemiluminescent EMSA Kit; native polyacrylamide gel (Figure 5 legend; Methods says SDS-PAGE); buffer, salt, pH and temperature not stated; settings: protein: recombinant; tags: GST (N-terminal, pGEX-4T-1); label: unlabeled

| Binder | binding result (GST-BrWRKY65 [1]) | other results |
| --- | --- | --- |
| BrNYC1 promoter W-box probe (dsDNA) DNA 1: GATCGCCAGATTGCAGTGACGGTTGACTTGAATAAAGAAAAATGAAAAAA DNA 2: TTTTTTCATTTTTCTTTATTCAAGTCAACCGTCACTGCAATCTGGCGATC | binds | – |
| BrNYC1 mutant W-box competitor (dsDNA) DNA 1: GATCGCCAGATTGCAGTGACGGAAAAAATGAATAAAGAAAAATGAAAAAA DNA 2: TTTTTTCATTTTTCTTTATTCATTTTTTCCGTCACTGCAATCTGGCGATC | – | binding result (GST-BrWRKY65 [2]): no binding |
| BrSGR1 promoter W-box probe (dsDNA) DNA 1: TTTCACTCGTATCGTAAGATTGTTGACTCCAACACGCAAACAACAAAAAC DNA 2: GTTTTTGTTGTTTGCGTGTTGGAGTCAACAATCTTACGATACGAGTGAAA | binds | – |
| BrSGR1 mutant W-box competitor (dsDNA) DNA 1: TTTCACTCGTATCGTAAGATTGAAAAAACCAACACGCAAACAACAAAAAC DNA 2: GTTTTTGTTGTTTGCGTGTTGGTTTTTTCAATCTTACGATACGAGTGAAA | – | binding result (GST-BrWRKY65 [3]): no binding |
| BrDIN1 promoter W-box probe (dsDNA) DNA 1: CGAGAGACCTGATTAAGAACATCTGACTTCAATTAAACCAATCACACTAC DNA 2: GTAGTGTGATTGGTTTAATTGAAGTCAGATGTTCTTAATCAGGTCTCTCG | binds | – |
| BrDIN1 mutant W-box competitor (dsDNA) DNA 1: CGAGAGACCTGATTAAGAACATAAAAAATCAATTAAACCAATCACACTAC DNA 2: GTAGTGTGATTGGTTTAATTGATTTTTTATGTTCTTAATCAGGTCTCTCG | – | binding result (GST-BrWRKY65 [4]): no binding |
